{
  "source": "patent US20190241662A1",
  "about": "(ADAGENE, published 2019)",
  "binders": {"B1": {"name": "B15717 (Fab, V domains shown)", "VH": "EVQLVESGGGLVQPGGSLRLSCAASGYTFSGYGIHWVRQAPGKGLEWIGEIYHSGSTYYSPSLKSRVTISRDNSKNTLYLQLNSLRAEDTAVYYCARRIDAFDIWGQGTLVTVSS", "VL": "DIQLTQSPSSLSASVGDRVTITCRASQSVDFDGFSFLHWYQQKPGKAPKLLIYDASSLESGVPSRFSGSGSGTDFTLTISSLQPEDFATYYCQQRDSWPYTFGQGTKVEIKR", "notes": "Fab from E. coli; also called Fab hit of TY21689"}, "B2": {"name": "B15716 (Fab, V domains shown)", "VH": "EVQLVESGGGLVQPGGSLRLSCAASGYSITSGYYWAWIRQAPGKGLEWVSSISGSGSTTYYADSVKGRFTISRDNSKNTLYLQLNSLRAEDTAVYYCARDGFGYFDYWGQGTLVTVSS", "VL": "DIQLTQSPSSLSASVGDRVTITCSASSSVSYVYWYQQKPGKAPKLLIYDASSLESGVPSRFSGSGSGTDFTLTISSLQPEDFATYYCVQGLQTPWTFGQGTKVEIKR", "notes": "Fab from E. coli; also called Fab hit of TY21586"}, "B3": {"name": "B15756 (Fab, V domains shown)", "VH": "EVQLVESGGGLVQPGGSLRLSCAASGFSLSTGGVAVSWIRQAPGKGLEWIGEIYHSGSTYYSPSLKSRVTISRDNSKNTLYLQLNSLRAEDTAVYYCARRIATATYFDYWGQGTLVTVSS", "VL": "DIQLTQSPSSLSASVGDRVTITCRASQTVFSRYLAWYQQKPGKAPKLLIYDASNRATGIPSRFSGSGSGTDFTLTISSLQPEDFATYYCQQSYYWPPWTFGQGTKVEIKR", "notes": "Fab from E. coli; also called Fab hit of TY21591"}, "B4": {"name": "B15722 (Fab, V domains shown)", "VH": "EVQLVESGGGLVQPGGSLRLSCAASGFTFSDYGIHWVRQAPGKGLEWIGEIYHSGSTYYSPSLKSRVTISRDNSKNTLYLQLNSLRAEDTAVYYCARDVAPGSSGYYDGFDFWGQGTLVTVSS", "VL": "DIQLTQSPSSLSASVGDRVTITCRASQGIGSSLAWYQQKPGKAPKLLIYDASNRATGIPSRFSGSGSGTDFTLTISSLQPEDFATYYCQQYDQWPPWTFGQGTKVEIKR", "notes": "Fab from E. coli; also called Fab hit of TY21587"}, "B5": {"name": "TY23286 (antibody, V domains shown)", "VH": "EVQLVESGGGLVQPGGSLRLSCAASGYSISSGYHWSWIRQAPGKGLEWLARIDWDDDKYYSTSLKSRLTISRDNSKNTLYLQLNSLRAEDTAVYYCARSYVYFDYWGQGTLVTVSS", "VL": "DIQLTQSPSSLSASVGDRVTITCRASQSVRGRFLAWYQQKPGKAPKLLIYDASNRATGIPSRFSGSGSGTDFTLTISSLQPEDFATYYCQQSSSWPPTFGQGTKVEIKR"}, "B6": {"name": "TY23289 (antibody, V domains shown)", "VH": "B5 VH", "VL": "B5 VL"}, "B7": {"name": "TY23291 (antibody, V domains shown)", "VH": "B5 VH", "VL": "B5 VL"}, "B8": {"name": "TY23280 (antibody, V domains shown)", "VH": "B5 VH", "VL": "B5 VL"}},
  "data": [
    {"biological_target": "T1, recombinant human CTLA4-Fc (human, UniProt P16410 36-162)", "T1 construct": "also called human CTLA4 fused with human FC fragment; CTLA4-Fc (Sino Biological, 11159-H03H)", "T1 sequence (looked up)": "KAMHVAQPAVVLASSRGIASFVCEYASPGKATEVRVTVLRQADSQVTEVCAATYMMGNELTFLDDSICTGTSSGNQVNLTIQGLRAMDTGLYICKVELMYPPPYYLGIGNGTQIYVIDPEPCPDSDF", "test": "BLI Octet, CTLA4-Fc on AHC sensor, Fab 10 ug/mL", "procedure": "Proprietary phagemid libraries (see PCT application number PCT/CN2017/098333, incorporated herein by reference in its entirety; see also PCT application number PCT/CN2017/098299, incorporated herein by reference in its entirety) were employed to pan against human CTLA4 antigens. A total of 3-5 rounds of panning were conducted. After the final round of panning, single-colony supernatant ELISA was performed to identify the primary hits that specifically recognized human CTLA4 (see e.g., UniProt Accession Number P16410). The primary hits were defined as those whose ELISA signals were at least twice that of background. The hits were then sequenced, and the unique clones were expressed in E. coli and purified. Their affinities against human CTLA4 were measured by ForteBio Octet RED96 Systems. […] The acquired ForteBio data were processed with Data Acquisition software 7.1, and kinetic data were fitted to a 1:1 Langmuir binding model.", "units": {"Kd": "nM", "koff": "s⁻¹", "kon": "M⁻¹ s⁻¹"}, "values": [
      {"binder": "B1", "Kd": 105},
      {"binder": "B2", "Kd": 12.1},
      {"binder": "B3", "Kd": 55.5, "koff": 0.00663, "kon": 120000},
      {"binder": "B4", "Kd": 61.2, "koff": 0.00434, "kon": 70900}
    ]},
    {"biological_target": "T1, recombinant human CTLA4-Fc", "test": "ELISA, coated human CTLA4-Fc (as in Example 8)", "procedure": "Plates were blocked with PBS supplemented with 3% non-fat milk at 37° C. for 1 hour. After washing, 100 μL of 3-fold serial dilutions of antibodies were added to each well. After incubation at 37° C. for 1 hour, plates were washed four times, and 100 μL HRP conjugated anti-human IgG (Fab specific) (1:6000 dilution) was added to each well. Plates were incubated at 37° C. for 1 hour, washed four times, and then 50 μL TMB substrate solution was added to each well, and the plate was incubated at room temperature. […] The EC₅₀ was evaluated by fitting the ELISA data using the asymmetrical sigmoidal (five-parameter logistic equation) model of GraphPad Prism 6 software.", "units": {"EC50": "nM"}, "values": [
      {"binder": "B5", "EC50": 1500},
      {"binder": "B6", "EC50": 133},
      {"binder": "B7", "EC50": 3660},
      {"binder": "B8", "EC50": 2950}
    ]}
  ]
}
